In the assay the target is CmbHLH2 (Chrysanthemum morifolium).

The text below walks through data of article PMC4664390.

Chain of CmbHLH2 (Chrysanthemum morifolium) (main, as listed by the source): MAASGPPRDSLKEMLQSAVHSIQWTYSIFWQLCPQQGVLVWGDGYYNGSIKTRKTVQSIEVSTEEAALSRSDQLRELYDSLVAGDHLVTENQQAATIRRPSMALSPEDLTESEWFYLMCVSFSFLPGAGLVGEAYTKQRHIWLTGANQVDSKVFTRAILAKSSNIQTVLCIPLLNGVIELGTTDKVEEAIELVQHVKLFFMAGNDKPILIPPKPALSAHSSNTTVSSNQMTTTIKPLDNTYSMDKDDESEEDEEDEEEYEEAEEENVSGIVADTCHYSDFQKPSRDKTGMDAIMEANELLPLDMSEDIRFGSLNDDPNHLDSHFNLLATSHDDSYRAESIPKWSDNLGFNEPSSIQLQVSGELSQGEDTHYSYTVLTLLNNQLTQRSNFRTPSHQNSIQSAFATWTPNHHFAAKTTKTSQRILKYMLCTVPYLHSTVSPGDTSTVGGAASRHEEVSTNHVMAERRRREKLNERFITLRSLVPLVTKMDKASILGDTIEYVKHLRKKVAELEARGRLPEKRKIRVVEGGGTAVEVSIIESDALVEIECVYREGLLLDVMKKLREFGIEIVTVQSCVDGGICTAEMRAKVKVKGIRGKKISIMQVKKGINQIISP

As for CmMYB6 (natural protein), the CmDFR promoter activity in dual luciferase assay (LUC/REN) in tobacco leaves on co-expression of CmbHLH2 with CmMYB6, relative to the empty vector set as one was greater than 40 fold.
